In the supplement of paper PMC10126150:
± gives the standard deviation of the averaged measurements.

Tested on: ATP
Assay: switch fluorescence ratio, 500 uM ATP over buffer (Cy3 cluster intensity, sum of 5 cycles each) (fold (ratio)); higher = stronger signal-on switching upon ATP binding; sequences stand for … in TCGTCGGCAGCGTCAGATGTGTATAAGAGACAGTTTTTTTTTTTTTTTTTTTTTTTTT…TC
Conditions: aptamer strand: ATP DNA aptamer (quencher-CACCTGGGGGAGTATTGCGGAGGAAGG + anchor), 100 nM annealed; ATP concentration: 500 uM
How it was run: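 For every switch-domain sequence, the fluorescence ratio is the mean of per-cluster values, each being summed target-cycle Cy3 intensity over summed buffer-cycle Cy3 intensity. Clusters outside 100-1000 RFU were excluded. On a modified Illumina MiSeq flow-cell, the Cy3-labelled switching-strand clusters were annealed to 100 nM quencher-labelled ATP aptamer, imaged in selection buffer and then after 15 min with 500 uM ATP at 22 °C. Five such cycles were run, with NaOH stripping and re-annealing between them.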
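Note: ATP exposure 15 min at 22 °C before imaging.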

Sequence | switch fluorescence ratio
TTGCTCCTGT | 0.9965 ± 0.0019
GGGTTCTTAA | 0.981 ± 0.048
CGGGGATGCA | 1.03 ± 0.023
AACGTGGCGA | 1.03 ± 0.047
TTTAGAAAGT | 1.028 ± 0.0052
CAGTAGGCAA | 2 ± 0.15
GAGGGCAATG | 1.22 ± 0.067
GTTTCGTAAT | 1.084 ± 0.0038
TTTTTTCACT | 1.17 ± 0.34
ATTGAAGATT | 0.989 ± 0.037
GGCGGTGGCG | 0.994 ± 0.1
AAGGATGTGT | 0.98 ± 0.012
GCCTGAAAGC | 0.9912 ± 0.0054
TAGCGGGTTG | 1.03 ± 0.036
CACATGACAC | 1.13 ± 0.015
TTACCAGTCT | 1 ± 0.046
TTTGTTGTAG | 0.985 ± 0.028
TTGGGCGCAT | 0.99 ± 0.025
TACAATTTCG | 1.01 ± 0.032
CGATTATCTT | 1.01 ± 0.011
ATCAGTGGGG | 0.991 ± 0.042
TCTGAGGTAT | 1.03 ± 0.034

Sequence | switch fluorescence ratio
TCACAGCCTG | 0.9973 ± 0.0019
GGTTACGAAG | 1.01 ± 0.044
TGTAAATGTG | 1 ± 0.028
ACCCTTATAG | 1.018 ± 0.0093
CGGCGGGTTT | 1.02 ± 0.049
AGAAAGCGTT | 1.02 ± 0.022
GAGGTTAGGT | 0.981 ± 0.01
TAGAGAATGG | 0.994 ± 0.0086
GCTTGAGGCT | 0.959 ± 0.06
CGCGTGATTT | 1.06 ± 0.058
ATTGAGTTAT | 0.967 ± 0.019
AATTTGGTCC | 1.04 ± 0.058
CGCGACAACA | 0.999 ± 0.031
AAAGTACCCG | 1.07 ± 0.04
GAACGGTGGG | 0.976 ± 0.019
GTCATTTGTA | 0.9813 ± 0.0074
ATATTAGACG | 1.04 ± 0.036
TTAGTGTCGT | 1.02 ± 0.017
CGTGCGGTGG | 1.01 ± 0.043
TTAATCTTAA | 0.972 ± 0.018
GGGTTATTAT | 1.01 ± 0.019
TATCTTTAAC | 1.03 ± 0.024

Sequence | switch fluorescence ratio
CTGCGTGGAG | 1.03 ± 0.026
GGCTTTCATT | 0.983 ± 0.013
ATTACGGAGA | 1.05 ± 0.069
GCTCCTGTTA | 1.11 ± 0.027
TTGGAGAGAA | 0.974 ± 0.022
TATCCAACAT | 1.036 ± 0.00037
GGTCTTGTGG | 0.993 ± 0.032
GGTTGTCATG | 0.967 ± 0.032
AGTTCTTTGT | 0.985 ± 0.024
GCATAGAAAA | 0.982 ± 0.015
ATGAGGAGGG | 1.02 ± 0.023
ACAGAATCGG | 1.03 ± 0.018
TATAAATTTT | 0.992 ± 0.036
TTAGTAGGGG | 1 ± 0.021
CGGGAATTAA | 0.997 ± 0.03
AAACAGTTGG | 0.9936 ± 0.0097
AACCCATTTG | 1.29 ± 0.48
GGAAAAATCG | 1.013 ± 0.0051
GGGGTGAGAG | 0.993 ± 0.026
GGGAGGGACC | 1.01 ± 0.011
TAAAATTGAG | 1 ± 0.024
ATGCTTAGTT | 1.03 ± 0.051

Sequence | switch fluorescence ratio
ATACGTTTGG | 1.01 ± 0.054
ATATTAATTT | 0.989 ± 0.023
CCGTGTGTCA | 1.03 ± 0.029
ATCTGATTGA | 0.97124 ± 0.00072
GGGGTAGAGA | 0.99 ± 0.015
ATGTTGGGGT | 1 ± 0.029
ACCTTATAAT | 1.025 ± 0.0092
TATTTTGCCT | 1.036 ± 0.01
GAGAAGGGAG | 0.9895 ± 0.0055
TTGACAGCGA | 1.22 ± 0.061
TTGTAAGATC | 1.02 ± 0.029
AGGCCAGGGG | 1.06 ± 0.1
ACTATCGGGT | 1.04 ± 0.028
TTTTGTCAAG | 1.01 ± 0.033
AGATCCTCTA | 1 ± 0.011
CCATAGAGAT | 1.025 ± 0.0025
CAAGGACAGC | 1.05 ± 0.047
AGATTCATGC | 1.01 ± 0.019
CGTGGTGGCT | 0.989 ± 0.12
